Test results from US10196657B2, “Methods of producing 7-carbon chemicals via methyl-ester shielded carbon chain elongation” (INVISTA North America S.á r.l., priority 2012, dated 2019).
Values belong to the molecule of their own block, whether it stands above or below them.

Columns and labels:
[1] = Samsonova et al., 2003; cited from earlier work
[2] = ω-transaminase activity assay, forward direction (pimelate semialdehyde to 7-aminoheptanoate); type: biochemical; details: concluded from reversibility of the ω-transaminase activity
Experimental: (§1) A sequence encoding an N-terminal His-tag was added to the genes from Chromobacterium violaceum, Pseudomonas syringae, Rhodobacter sphaeroides, and Vibrio Fluvialis encoding the ω-transaminases of SEQ ID NOs: 8, 10, 11 and 13, respectively (see FIGS. 7F and 7G) such that N-terminal HIS tagged ω-transaminases could be produced. Each of the resulting modified genes was cloned into a pET21a expression vector under control of the T7 promoter and each expression vector was transformed into a BL21[DE3] E. coli host. The resulting recombinant E. coli strains were cultivated at 37° C. in a 250 mL shake flask culture containing 50 mL LB media and antibiotic selection pressure, with shaking at 230 rpm. Each culture was induced overnight at 16° C. using 1 mM IPTG.
(§2) The pellet from each induced shake flask culture was harvested via centrifugation. Each pellet was resuspended and lysed via sonication. The cell debris was separated from the supernatant via centrifugation and the cell free extract was used immediately in enzyme activity assays.
Enzyme activity in the forward direction (i.e., pimelate semialdehyde to 7-aminoheptanoate) was confirmed for the transaminases of SEQ ID NO 10, SEQ ID NO 11 and SEQ ID NO 13. Enzyme activity assays were performed in a buffer composed of a final concentration of 50 mM HEPES buffer (pH=7.5), 10 mM pimelate semialdehyde, 10 mM L-alanine and 100 μM pyridoxyl 5′ phosphate. Each enzyme activity assay reaction was initiated by adding a cell free extract of the ω-transaminase gene product or the empty vector control to the assay buffer containing the pimelate semialdehyde and incubated at 25° C. for 4 h, with shaking at 250 rpm. The formation of pyruvate was quantified via RP-HPLC.

[3] = Kaulmann et al., 2007; cited from earlier work
[4] = ω-transaminase activity assay, 7-aminoheptanol to 7-oxoheptanol; type: biochemical
Experimental: A nucleotide sequence encoding an N-terminal His-tag was added to the Chromobacterium violaceum, Pseudomonas syringae and Rhodobacter sphaeroides genes encoding the ω-transaminases of SEQ ID NOs: 8, 10 and 11, respectively (see FIGS. 7F and 7G) such that N-terminal HIS tagged ω-transaminases could be produced. The modified genes were cloned into a pET21a expression vector under the T7 promoter. Each expression vector was transformed into a BL21[DE3] E. coli host. Each resulting recombinant E. coli strain were cultivated at 37° C. in a 250 mL shake flask culture containing 50 mL LB media and antibiotic selection pressure, with shaking at 230 rpm. Each culture was induced overnight at 16° C. using 1 mM IPTG.
as §2
(§3) Enzyme activity assays in the reverse direction (i.e., 7-aminoheptanol to 7-oxoheptanol) were performed in a buffer composed of a final concentration of 50 mM HEPES buffer (pH=7.5), 10 mM 7-aminoheptanol, 10 mM pyruvate, and 100 μM pyridoxyl 5′ phosphate. Each enzyme activity assay reaction was initiated by adding cell free extract of the ω-transaminase gene product or the empty vector control to the assay buffer containing the 7-aminoheptanol and then incubated at 25° C. for 4 h, with shaking at 250 rpm. The formation of L-alanine was quantified via RP-HPLC.

[5] = ω-transaminase activity assay, reverse direction (7-aminoheptanoate to pimelate semialdehyde); type: biochemical; details: cell free extract, 10 mM 7-aminoheptanoate, 10 mM pyruvate, 25° C., 4 h; against empty vector control; FIG. 15
Experimental: as §1, §2
as §3, with “7-aminoheptanoate” for “7-aminoheptanol”, “pimelate semialdehyde)” for “7-oxoheptanol)”, “7-aminoheptanoate,” for “7-aminoheptanol,”, “pyruvate” for “pyruvate,”, “and” for “and then”, “L-alanine from pyruvate” for “L-alanine”

[6] = Carboxylate reductase activity assay, pimelate to pimelate semialdehyde (NADPH consumption); type: biochemical; details: purified enzyme enhanced by sfp gene product, 2 mM pimelate, room temperature, 20 min; against empty vector control; FIG. 10
Experimental: A sequence encoding a HIS-tag was added to the genes from Segniliparus rugosus and Segniliparus rotundus that encode the carboxylate reductases of SEQ ID NOs: 4 and 7, respectively (see FIGS. 7C and 7F), such that N-terminal HIS tagged carboxylate reductases could be produced. Each of the modified genes was cloned into a pET Duet expression vector along with a sfp gene encoding a HIS-tagged phosphopantetheine transferase from Bacillus subtilis, both under the T7 promoter. Each expression vector was transformed into a BL21[DE3] E. coli host and the resulting recombinant E. coli strains were cultivated at 37° C. in a 250 mL shake flask culture containing 50 mL LB media and antibiotic selection pressure, with shaking at 230 rpm. Each culture was induced overnight at 37° C. using an auto-induction media.
The pellet from each induced shake flask culture was harvested via centrifugation. Each pellet was resuspended and lysed via sonication, and the cell debris was separated from the supernatant via centrifugation. […]
Enzyme activity assays (i.e., from pimelate to pimelate semialdehyde) were performed in triplicate in a buffer composed of a final concentration of 50 mM HEPES buffer (pH=7.5), 2 mM pimelate, 10 mM MgCl2, 1 mM ATP and 1 mM NADPH. […] The consumption of NADPH was monitored by absorbance at 340 nm.

[7] = Haywood et al. 1988; Slater et al. 1998; cited from earlier work

B1: SEQ ID NO 12: Escherichia coli diamine ω-transaminase, Genbank Accession No. AAA57874.1 (protein, listed as Escherichia coli)
chain: MNRLPSSASALACSAHALNLIEKRTLDHEEMKALNREVIEYFKEHVNPGFLEYRKSVTAGGDYGAVEWQAGSLNTLVDTQGQEFIDCLGGFGIFNVGHRNPVVVSAVQNQLAKQPLHSQELLDPLRAMLAKTLAALTPGKLKYSFFCNSGTESVEAALKLAKAYQSPRGKFTFIATSGAFHGKSLGALSATAKSTFRKPFMPLLPGFRHVPFGNIEAMRTALNECKKTGDDVAAVILEPIQGEGGVILPPPGYLTAVRKLCDEFGALMILDEVQTGMGRTGKMFACEHENVQPDILCLAKALGGGVMPIGATIATEEVFSVLFDNPFLHTTTFGGNPLACAAALATINVLLEQNLPAQAEQKGDMLLDGFRQLAREYPDLVQEARGKGMLMAIEFVDNEIGYNFASEMFRQRVLVAGTLNNAKTIRIEPPLTLTIEQCELVIKAARKALAAMRVSVEEA
diamine substrate range [1]: accepts a broad range of diamine carbon chain length substrates

acceptance of 7-aminoheptanol as substrate (formation of L-alanine, RP-HPLC) ([4]; cell free extract, 10 mM 7-aminoheptanol, 10 mM pyruvate, 25° C., 4 h, against empty vector control, FIG. 19): accepted 7-aminoheptanol as substrate
acceptance of 7-oxoheptanol as substrate, forming 7-aminoheptanol (concluded from reversibility) ([4]; concluded from reversibility of the ω-transaminase activity (Example 2)): accept 7-oxoheptanol as substrate
acceptance of 7-aminoheptanoate as substrate (formation of L-alanine from pyruvate, RP-HPLC) [5]: accepted 7-aminoheptanote as substrate
B2: SEQ ID NO 8: Chromobacterium violaceum ω-transaminase, Genbank Accession No. AAQ59697.1 (protein, listed as Chromobacterium violaceum)
chain: MQKQRTTSQWRELDAAHHLHPFTDTASLNQAGARVMTRGEGVYLWDSEGNKIIDGMAGLWCVNVGYGRKDFAEAARRQMEELPFYNTFFKTTHPAVVELSSLLAEVTPAGFDRVFYTNSGSESVDTMIRMVRRYWDVQGKPEKKTLIGRWNGYHGSTIGGASLGGMKYMHEQGDLPIPGMAHIEQPWWYKHGKDMTPDEFGVVAARWLEEKILEIGADKVAAFVGEPIQGAGGVIVPPATYWPEIERICRKYDVLLVADEVICGFGRTGEWFGHQHFGFQPDLFTAAKGLSSGYLPIGAVFVGKRVAEGLIAGGDFNHGFTYSGHPVCAAVAHANVAALRDEGIVQRVKDDIGPYMQKRWRETFSRFEHVDDVRGVGMVQAFTLVKNKAKRELFPDFGEIGTLCRDIFFRNNLIMRACGDHIVSAPPLVMTRAEVDEMLAVAERCLEEFEQTLKARGLA
acceptance of pimelate semialdehyde as substrate, synthesizing 7-aminoheptanoate (conclusion from confirmed reversibility) [2]: accepted pimelate semialdehyde as substrate
activity accepting 6-aminohexanoic acid as amino donor [3]: accepting 6-aminohexanoic acid as amino donor

acceptance of pimelate as substrate (NADPH consumption, absorbance at 340 nm) [6]: accepted pimelate as substrate
B3: SEQ ID NO 4: Segniliparus rugosus carboxylate reductase, Genbank Accession No. EFV11917.1 (protein, listed as Segniliparus rugosus)
chain: MGDGEERAKRFFQRIGELSATDPQFAAAAPDPAVVEAVSDPSLSFTRYLDTLMRGYAERPALAHRVGAGYETISYGELWARVGAIAAAWQADGLAPGDFVATVGFTSPDYVAVDLAAARSGLVSVPLQAGASLAQLVGILEETEPKVLAASASSLEGAVACALAAPSVQRLVVFDLRGPDASESAADERRGALADAEEQLARAGRAVVVETLADLAARGEALPEAPLFEPAEGEDPLALLIYTSGSTGAPKGAMYSQRLVSQLWGRTPVVPGMPNISLHYMPLSHSYGRAVLAGALSAGGTAHFTANSDLSTLFEDIALARPTFLALVPRVCEMLFQESQRGQDVAELRERVLGGRLLVAVCGSAPLSPEMRAFMEEVLGFPLLDGYGSTEALGVMRNGIIQRPPVIDYKLVDVPELGYRTTDKPYPRGELCIRSTSLISGYYKRPEITAEVFDAQGYYKTGDVMAEIAPDHLVYVDRSKNVLKLSQGEFVAVAKLEAAYGTSPYVKQIFVYGNSERSFLLAVVVPNAEVLGARDQEEAKPLIAASLQKIAKEAGLQSYEVPRDFLIETEPFTTQNGLLSEVGKLLRPKLKARYGEALEARYDEIAHGQADELRALRDGAGQRPVVETVVRAAVAISGSEGAEVGPEANFADLGGDSLSALSLANLLHDVFEVEVPVRIIIGPTASLAGIAKHIEAERAGASAPTAASVHGAGATRIRASELTLEKFLPEDLLAAAKGLPAADQVRTVLLTGANGWLGRFLALEQLERLARSGQDGGKLICLVRGKDAAAARRRIEETLGTDPALAARFAELAEGRLEVVPGDVGEPKFGLDDAAWDRLAEEVDVIVHPAALVNHVLPYHQLFGPNVVGTAEIIRLAITAKRKPVTYLSTVAVAAGVEPSSFEEDGDIRAVVPERPLGDGYANGYGNSKWAGEVLLREAHELVGLPVAVFRSDMILAHTRYTGQLNVPDQFTRLVLSLLATGIAPKSFYQQGAAGERQRAHYDGIPVDFTAEAITTLGAEPSWFDGGAGFRSFDVFNPHHDGVGLDEFVDWLIEAGHPISRIDDHKEWFARFETAVRGLPEAQRQHSLLPLLRAYSFPHPPVDGSVYPTGKFQGAVKAAQVGSDHDVPHLGKALIVKYADDLKALGLL

B4: β-ketothiolase encoded by bktB from Cupriavidus necator: β-ketothiolase classified under EC 2.3.1.16, gene product of bktB (protein, UniProt Q0KBP1 1-394, looked up)
Beta-ketothiolase BktB: MTREVVVVSGVRTAIGTFGGSLKDVAPAELGALVVREALARAQVSGDDVGHVVFGNVIQTEPRDMYLGRVAAVNGGVTINAPALTVNRLCGSGLQAIVSAAQTILLGDTDVAIGGGAESMSRAPYLAPAARWGARMGDAGLVDMMLGALHDPFHRIHMGVTAENVAKEYDISRAQQDEAALESHRRASAAIKAGYFKDQIVPVVSKGRKGDVTFDTDEHVRHDATIDDMTKLRPVFVKENGTVTAGNASGLNDAAAAVVMMERAEAERRGLKPLARLVSYGHAGVDPKAMGIGPVPATKIALERAGLQVSDLDVIEANEAFAAQACAVTKALGLDPAKVNPNGSGISLGHPIGATGALITVKALHELNRVQGRYALVTMCIGGGQGIAAIFERI
substrates accepted, forming the CoA-activated C7 aliphatic backbone [7]: accepts propanoyl-CoA and pentanoyl-CoA as substrates
